The source of these data is article PMC5639367, “Structure‐Guided Design of Peptides as Tools to Probe the Protein–Protein Interaction between Cullin‐2 and Elongin BC Substrate Adaptor in Cullin RING E3 Ubiquitin Ligases” (Chemmedchem, 2017).

As usually defined, the Kd is a measure of binding affinity in units of concentration.

Sequence of peptide C (8-mer Cul2 peptide, Leu3 replaced by phenylalanine) (Q13617 whole entry, looked up, tested part not stated): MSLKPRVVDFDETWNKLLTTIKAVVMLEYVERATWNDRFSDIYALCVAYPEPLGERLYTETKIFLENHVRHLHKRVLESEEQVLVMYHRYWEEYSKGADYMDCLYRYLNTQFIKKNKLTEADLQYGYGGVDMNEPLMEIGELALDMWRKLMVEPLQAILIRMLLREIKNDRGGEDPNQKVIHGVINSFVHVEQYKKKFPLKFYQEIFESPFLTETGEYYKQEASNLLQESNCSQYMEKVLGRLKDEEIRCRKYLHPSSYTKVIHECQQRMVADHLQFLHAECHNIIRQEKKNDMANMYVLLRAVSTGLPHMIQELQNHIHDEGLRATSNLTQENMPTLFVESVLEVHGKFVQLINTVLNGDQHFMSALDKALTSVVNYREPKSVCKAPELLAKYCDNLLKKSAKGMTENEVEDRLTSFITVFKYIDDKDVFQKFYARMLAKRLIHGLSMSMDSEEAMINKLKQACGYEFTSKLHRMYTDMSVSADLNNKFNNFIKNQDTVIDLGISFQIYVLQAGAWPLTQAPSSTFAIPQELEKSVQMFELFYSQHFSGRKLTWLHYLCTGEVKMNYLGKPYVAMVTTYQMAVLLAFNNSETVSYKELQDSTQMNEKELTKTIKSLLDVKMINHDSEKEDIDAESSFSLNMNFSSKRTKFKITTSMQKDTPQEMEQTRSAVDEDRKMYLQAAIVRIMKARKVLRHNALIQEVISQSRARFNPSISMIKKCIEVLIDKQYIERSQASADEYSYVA
Sequence of peptide D (8-mer Cul2 peptide, Leu3 replaced by tyrosine) (Q13617 whole entry, looked up, tested part not stated): as above

The assay addresses VBC ternary complex (pVHL, Elongin B, Elongin C) (UniProt P40337). As to the kind of experiment: BLI; biotinylated VBC (25 ug/mL) immobilised on Super Streptavidin biosensors, peptides titrated; Octet RED384; 25 °C; 20 mM HEPES pH 7.6, 100 mM NaCl, 1 mM DTT, 0.02 % Tween-20; reference tips subtracted; 1:1 model. A general note: Biolayer interferometry detects binding as a change in optical thickness at a sensor tip.
The substance “peptide C (8-mer Cul2 peptide, Leu3 replaced by phenylalanine) (from UniProt Q13617 1-8)” returned a dissociation constant Kd of 3100 µM. In other words, the millimolar range.

“peptide D (8-mer Cul2 peptide, Leu3 replaced by tyrosine) (from UniProt Q13617 1-8)” gave a Kd of 7400 µM.

Substance “peptide F (8-mer Cul2 peptide, Leu3 replaced by norvaline) (from UniProt Q13617 1-8)” gave an equilibrium dissociation constant (Kd) of 1900 µM.

With “peptide G (8-mer Cul2 peptide, Leu3 replaced by tert-butylglycine) (from UniProt Q13617 1-8)”, the dissociation constant (Kd) came to 900 µM.

“peptide H (8-mer Cul2 peptide, Leu3 replaced by phenylglycine) (from UniProt Q13617 1-8)” yielded a dissociation constant (Kd) of 2100 µM.

In turn, “peptide I (8-mer Cul2 peptide, Leu3 replaced by cyclohexhylglycine) (from UniProt Q13617 1-8)” displayed a Kd of 8900 µM. This Kd lies about 4.2-fold higher than the previous one.

“peptide K (8-mer Cul2 peptide, Leu3 replaced by thioproline) (from UniProt Q13617 1-8)” came in with a Kd of 2200 µM. Compared with the last substance, the Kd is about 4-fold lower.
